The experiment concerns the target T1, TSLP receptor (TSLPR) (mouse (endogenous in mouse thymocytes)) (UniProt Q8CII9).
T1 sequence: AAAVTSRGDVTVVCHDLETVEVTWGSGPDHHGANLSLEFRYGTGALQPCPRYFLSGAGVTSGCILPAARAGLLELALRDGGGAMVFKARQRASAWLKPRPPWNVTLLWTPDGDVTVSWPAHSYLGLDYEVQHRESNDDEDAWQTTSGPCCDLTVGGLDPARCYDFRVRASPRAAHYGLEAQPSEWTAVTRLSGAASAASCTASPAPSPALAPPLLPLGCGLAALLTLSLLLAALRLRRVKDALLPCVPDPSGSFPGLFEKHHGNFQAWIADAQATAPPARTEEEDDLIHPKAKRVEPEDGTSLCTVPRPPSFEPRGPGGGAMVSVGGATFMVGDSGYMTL

Data on one molecule can be found in paper PMC1450317.

B1: thymic stromal derived lymphopoietin (TSLP), recombinant mouse (ligand)
chain: YNFSNCNFTSITKIYCNIIFHDLTGDLKGAKFEQIEDCESKPACLLKIEYYTLNPIPGCPSLPDKTFARRTREALNDHCPGYPETERNDGTQEMAQEVQNICLNQTSQILRLWYSFMQSPE
In turn, B1 yielded a FoxP3 mRNA (real-time PCR, FoxP3/18S) in purified CD4+CD8-CD25+ adult thymocytes cultured with TSLP for two days of 2 fold and a FoxP3 mRNA (real-time PCR, FoxP3/18S) in purified CD4+CD8-CD25- adult thymocytes cultured with TSLP for two days of 10 fold.
